Measured values reported in patent US20110300138A1 (published 2011).
Like-named read-outs stand apart in the source and are kept apart here.

How the values were obtained:
Assay in all cases: cell-based or functional assay
[1] = molecular target: TSHR with Arg255 mutated to Ala, expressed in CHO cells (human) (UniProt P16473)
[2] = molecular target: TSHR with Asp203 mutated to Ala expressed in CHO cells (human) (UniProt P16473)
[3] = molecular target: TSHR with Glu178 mutated to Ala expressed in CHO cells (human) (UniProt P16473)
[4] = molecular target: TSHR with Lys183 mutated to Ala expressed in CHO cells (human) (UniProt P16473)
[5] = molecular target: TSHR with Lys183 mutated to Asp expressed in CHO cells (human) (UniProt P16473)
[6] = molecular target: TSHR with Lys250 mutated to Ala (expressed in CHO cells) (human) (UniProt P16473)
[7] = molecular target: TSHR with Lys58 mutated to Ala expressed in CHO cells (human) (UniProt P16473)
[8] = molecular target: wild type TSHR (human TSH receptor) expressed in CHO cells (human) (UniProt P16473)
[9] = molecular target: wild type TSHR expressed in CHO cells (human) (UniProt P16473)
[10] = molecular target: TSHR with Arg80 mutated to Ala expressed in CHO cells (human) (UniProt P16473)
[11] = molecular target: wild type TSHR expressed in CHO cells (human) (UniProt P16473); remark: listed apart in the source
[12] = molecular target: TSHR with Tyr82 mutated to Ala expressed in CHO cells (human) (UniProt P16473)
[13] = molecular target: wild type TSHR expressed in CHO cells (human) (UniProt P16473); remark: listed apart in the source
[14] = molecular target: human TSHR with Glu251 mutated to Ala expressed in CHO cells (human) (UniProt P16473)
[15] = molecular target: wild type TSHR expressed in CHO cells (human) (UniProt P16473); remark: listed apart in the source
[16] = molecular target: TSHR with Thr257 mutated to Ala, expressed in CHO cells (human) (UniProt P16473)
[17] = molecular target: wild type TSHR (human TSH receptor) expressed in CHO cells (human) (UniProt P16473); remark: listed apart in the source
[18] = molecular target: TSHR with Trp258 mutated to Ala, expressed in CHO cells (human) (UniProt P16473)
[19] = molecular target: wild type TSHR (human TSH receptor) expressed in CHO cells (human) (UniProt P16473); remark: listed apart in the source

TSH (thyroid stimulating hormone) (ligand)
% inhibition of TSH stimulation; TSH (2), run at the end of assay [1]: 7%
Cyclic AMP produced; TSH 3 ng/mL [1]: 63.9 pmol/mL
Cyclic AMP produced; TSH (2) 3 ng/mL, run at the end of assay [1]: 59.6 pmol/mL
Mutated/wild type (%) of cyclic AMP produced; TSH 3 ng/mL [1]: 102%
Mutated/wild type (%) of cyclic AMP produced; TSH (2) 3 ng/mL, run at the end of assay [1]: 87%
% inhibition of TSH stimulation: TSH (2) [2]: 0%
Cyclic AMP, Mutated/wild type (%): TSH 3 ng/mL [2]: 76%
Cyclic AMP, Mutated/wild type (%): TSH (2) [2]: 87%
% inhibition of TSH stimulation; TSH (2), run at the end of assay; Exp 1 [3]: 12%
% inhibition of TSH stimulation; TSH (2), run at the end of assay; Exp 2 [3]: 5%
Cyclic AMP produced; TSH 3 ng/mL; Exp 1 [3]: 56.6 pmol/mL
Cyclic AMP produced; TSH 3 ng/mL; Exp 2 [3]: 46.2 pmol/mL
Cyclic AMP produced; TSH (2) 3 ng/mL, run at the end of assay; Exp 1 [3]: 50.1 pmol/mL
Cyclic AMP produced; TSH (2) 3 ng/mL, run at the end of assay; Exp 2 [3]: 44.1 pmol/mL
Mutated/wild type (%) of cyclic AMP produced; TSH 3 ng/mL; Exp 1 [3]: 107%
Mutated/wild type (%) of cyclic AMP produced; TSH 3 ng/mL; Exp 2 [3]: 53%
Mutated/wild type (%) of cyclic AMP produced; TSH (2) 3 ng/mL, run at the end of assay; Exp 1 [3]: 65%
Mutated/wild type (%) of cyclic AMP produced; TSH (2) 3 ng/mL, run at the end of assay; Exp 2 [3]: 50%
% inhibition of TSH stimulation, Exp 1: TSH (2) [4]: 18%
% inhibition of TSH stimulation, Exp 2: TSH (2) [4]: 23%
Cyclic AMP, Mutated/wild type (%), Exp 1: TSH 3 ng/mL [4]: 124%
Cyclic AMP, Mutated/wild type (%), Exp 1: TSH (2) [4]: 74%
Cyclic AMP, Mutated/wild type (%), Exp 2: TSH 3 ng/mL [4]: 128%
% inhibition of TSH stimulation; TSH (2), run at the end of assay [5]: 20%
Cyclic AMP produced; TSH 3 ng/mL [5]: 117 pmol/mL
Cyclic AMP produced; TSH (2) 3 ng/mL, run at the end of assay [5]: 93.4 pmol/mL
Mutated/wild type (%) of cyclic AMP produced; TSH 3 ng/mL [5]: 137%
% inhibition of TSH stimulation; TSH (2), run at the end of assay, no antibody; Experiment 1 [6]: 10%
% inhibition of TSH stimulation; TSH (2), run at the end of assay, no antibody; Experiment 2 [6]: 7%
Cyclic AMP produced; TSH 3 ng/mL alone; Experiment 1 [6]: 64.7 pmol/mL
Cyclic AMP produced; TSH 3 ng/mL alone; Experiment 2 [6]: 55 pmol/mL
Cyclic AMP produced; TSH (2) 3 ng/mL, run at the end of assay; Experiment 1 [6]: 58.3 pmol/mL
Cyclic AMP produced; TSH (2) 3 ng/mL, run at the end of assay; Experiment 2 [6]: 51.1 pmol/mL
Mutated/wild type (%) of cyclic AMP produced; TSH 3 ng/mL alone; Experiment 1 [6]: 83%
Mutated/wild type (%) of cyclic AMP produced; TSH 3 ng/mL alone; Experiment 2 [6]: 64%
Cyclic AMP produced at 0.01 ng/mL TSH [7]: 7.16 pmol/mL
Cyclic AMP produced at 0.03 ng/mL TSH [7]: 10 pmol/mL
Cyclic AMP produced at 0.1 ng/mL TSH [7]: 17.2 pmol/mL
Cyclic AMP produced at 0.3 ng/mL TSH [7]: 45.9 pmol/mL
Cyclic AMP produced at 1 ng/mL TSH [7]: 75.2 pmol/mL
Cyclic AMP produced at 3 ng/mL TSH [7]: 83.7 pmol/mL
Mutated/Wild type (%) of cyclic AMP at 0.01 ng/mL TSH [7]: 230%
Mutated/Wild type (%) of cyclic AMP at 0.03 ng/mL TSH [7]: 226%
Mutated/Wild type (%) of cyclic AMP at 0.1 ng/mL TSH [7]: 171%
Mutated/Wild type (%) of cyclic AMP at 0.3 ng/mL TSH [7]: 111%
Mutated/Wild type (%) of cyclic AMP at 1 ng/mL TSH [7]: 101%
Mutated/Wild type (%) of cyclic AMP at 3 ng/mL TSH [7]: 88%
% inhibition of TSH stimulation, Exp 1: TSH (2) [8]: 0%
% inhibition of TSH stimulation, Exp 2: TSH (2) [8]: 0%
% inhibition of TSH stimulation: TSH (2) [8]: 0%
% inhibition of TSH stimulation; TSH (2), run at the end of assay [8]: 0%
Cyclic AMP produced; TSH 3 ng/mL [8]: 62.4 pmol/mL
Cyclic AMP produced; TSH (2) 3 ng/mL, run at the end of assay [8]: 68.4 pmol/mL
% inhibition of TSH stimulation; TSH (2), run at the end of assay [9]: 0%
% inhibition of TSH stimulation; TSH (2), run at the end of assay, no antibody; Experiment 1 [9]: 0%
% inhibition of TSH stimulation; TSH (2), run at the end of assay, no antibody; Experiment 2 [9]: 12%
% inhibition of TSH stimulation; TSH (2), run at the end of assay; Exp 1 [9]: 0%
% inhibition of TSH stimulation; TSH (2), run at the end of assay; Exp 2 [9]: 0%
Cyclic AMP produced at 0.01 ng/mL TSH [9]: 3.11 pmol/mL
Cyclic AMP produced at 0.03 ng/mL TSH [9]: 4.43 pmol/mL
Cyclic AMP produced at 0.1 ng/mL TSH [9]: 10.1 pmol/mL
Cyclic AMP produced at 0.3 ng/mL TSH [9]: 41.2 pmol/mL
Cyclic AMP produced at 1 ng/mL TSH [9]: 74.5 pmol/mL
Cyclic AMP produced at 3 ng/mL TSH [9]: 95.3 pmol/mL
Cyclic AMP produced; TSH 3 ng/mL [9]: 85.8 pmol/mL
Cyclic AMP produced; TSH 3 ng/mL alone; Experiment 1 [9]: 77.9 pmol/mL
Cyclic AMP produced; TSH 3 ng/mL alone; Experiment 2 [9]: 86.5 pmol/mL
Cyclic AMP produced; TSH 3 ng/mL; Exp 1 [9]: 52.9 pmol/mL
Cyclic AMP produced; TSH 3 ng/mL; Exp 2 [9]: 87.2 pmol/mL
Cyclic AMP produced; TSH (2) 3 ng/mL, run at the end of assay [9]: 97.8 pmol/mL
Cyclic AMP produced; TSH (2) 3 ng/mL, run at the end of assay; Exp 1 [9]: 77.2 pmol/mL
Cyclic AMP produced; TSH (2) 3 ng/mL, run at the end of assay; Exp 2 [9]: 88.1 pmol/mL
Cyclic AMP produced; TSH (2) 3 ng/mL, run at the end of assay; Experiment 1 [9]: 84.5 pmol/mL
Cyclic AMP produced; TSH (2) 3 ng/mL, run at the end of assay; Experiment 2 [9]: 75.9 pmol/mL
Cyclic AMP produced at 0.01 ng/mL TSH [10]: 4.06 pmol/mL
Cyclic AMP produced at 0.03 ng/mL TSH [10]: 6.19 pmol/mL
Cyclic AMP produced at 0.1 ng/mL TSH [10]: 13.3 pmol/mL
Cyclic AMP produced at 0.3 ng/mL TSH [10]: 27.7 pmol/mL
Cyclic AMP produced at 1 ng/mL TSH [10]: 54.5 pmol/mL
Cyclic AMP produced at 3 ng/mL TSH [10]: 57 pmol/mL
Mutated/Wild type (%) of cyclic AMP at 0.01 ng/mL TSH [10]: 203%
Mutated/Wild type (%) of cyclic AMP at 0.03 ng/mL TSH [10]: 168%
Mutated/Wild type (%) of cyclic AMP at 0.1 ng/mL TSH [10]: 146%
Mutated/Wild type (%) of cyclic AMP at 0.3 ng/mL TSH [10]: 125%
Cyclic AMP produced at 0.01 ng/mL TSH [11]: 2 pmol/mL
Cyclic AMP produced at 0.03 ng/mL TSH [11]: 3.68 pmol/mL
Cyclic AMP produced at 0.1 ng/mL TSH [11]: 9.1 pmol/mL
Cyclic AMP produced at 0.3 ng/mL TSH [11]: 22.2 pmol/mL
Cyclic AMP produced at 1 ng/mL TSH [11]: 57.5 pmol/mL
Cyclic AMP produced at 3 ng/mL TSH [11]: 58.5 pmol/mL
Cyclic AMP produced at 0.01 ng/mL TSH [12]: 2.6 pmol/mL
Cyclic AMP produced at 0.03 ng/mL TSH [12]: 4.1 pmol/mL
Cyclic AMP produced at 0.1 ng/mL TSH [12]: 9.64 pmol/mL
Cyclic AMP produced at 0.3 ng/mL TSH [12]: 33.7 pmol/mL
Cyclic AMP produced at 1 ng/mL TSH [12]: 50 pmol/mL
Cyclic AMP produced at 3 ng/mL TSH [12]: 61.3 pmol/mL
Mutated/Wild type (%) of cyclic AMP at 0.01 ng/mL TSH [12]: 257%
Mutated/Wild type (%) of cyclic AMP at 0.03 ng/mL TSH [12]: 93%
Mutated/Wild type (%) of cyclic AMP at 0.1 ng/mL TSH [12]: 100%
Mutated/Wild type (%) of cyclic AMP at 0.3 ng/mL TSH [12]: 113%
Mutated/Wild type (%) of cyclic AMP at 3 ng/mL TSH [12]: 108%
Cyclic AMP produced at 0.01 ng/mL TSH [13]: 1.01 pmol/mL
Cyclic AMP produced at 0.03 ng/mL TSH [13]: 4.39 pmol/mL
Cyclic AMP produced at 0.1 ng/mL TSH [13]: 9.67 pmol/mL
Cyclic AMP produced at 0.3 ng/mL TSH [13]: 29.8 pmol/mL
Cyclic AMP produced at 1 ng/mL TSH [13]: 53.3 pmol/mL
Cyclic AMP produced at 3 ng/mL TSH [13]: 56.6 pmol/mL
% inhibition of TSH stimulation; TSH (2), run at the end of assay, no antibody [14]: 0%
Cyclic AMP produced; TSH 3 ng/mL alone [14]: 76.1 pmol/mL
Cyclic AMP produced; TSH (2) 3 ng/mL, run at the end of assay [14]: 87.4 pmol/mL
Mutated/wild type (%) of cyclic AMP produced; TSH 3 ng/mL alone [14]: 78%
Mutated/wild type (%) of cyclic AMP produced; TSH (2) 3 ng/mL, run at the end of assay [14]: 84%
% inhibition of TSH stimulation; TSH (2), run at the end of assay, no antibody [15]: 0%
Cyclic AMP produced; TSH 3 ng/mL alone [15]: 97.5 pmol/mL
Cyclic AMP produced; TSH (2) 3 ng/mL, run at the end of assay [15]: 104 pmol/mL
% inhibition of TSH stimulation; TSH (2), run at the end of assay [16]: 8%
Cyclic AMP produced; TSH 3 ng/mL [16]: 93.2 pmol/mL
Cyclic AMP produced; TSH (2) 3 ng/mL, run at the end of assay [16]: 85.4 pmol/mL
Mutated/wild type (%) of cyclic AMP produced; TSH 3 ng/mL [16]: 141%
Cyclic AMP produced; TSH 3 ng/mL [17]: 66.1 pmol/mL
Cyclic AMP produced; TSH (2) 3 ng/mL, run at the end of assay [17]: 93 pmol/mL
% inhibition of TSH stimulation; TSH (2), run at the end of assay [18]: 20%
Cyclic AMP produced; TSH 3 ng/mL [18]: 59.9 pmol/mL
Cyclic AMP produced; TSH (2) 3 ng/mL, run at the end of assay [18]: 47.8 pmol/mL
Mutated/wild type (%) of cyclic AMP produced; TSH 3 ng/mL [18]: 102%
Cyclic AMP produced; TSH 3 ng/mL [19]: 58.8 pmol/mL
Cyclic AMP produced; TSH (2) 3 ng/mL, run at the end of assay [19]: 69.6 pmol/mL
